These results are taken from PMC5693851.

Holding throughout (conditions): glycan lost; control: wild type
The nature of data set [1]: fluorogenic substrate assays, lysates of transfected or conditioned HeLa.
A short description of data set [2]: non-reducing western blot of culture medium. For orientation: Immunoblotting shows a protein as a band on a membrane.
A short description of data set [3]: immunofluorescence, endo/lysosomal (LAMP-1) vs Golgin-97 colocalisation.
Data set [4] is described as follows: non-reducing western blot of recipient cell lysates.
Data set [5] in a line: non-reducing western blot of culture medium, HeLa/Hek293.
Data set [6] in a line: conditioned medium, western blot of recipient cell lysates.

B1: cystatin F: N6162SN115Q (protein)
parent chain: MRAAGTLLAFCCLVLSTTGGPSPDTCSQDLNSRVKPGFPKTIKTNDPGVLQAARYSVEKFNNCTNDMFLFKESRITRALVQIVKGLKYMLEVEIGRTTCKKNQHLRLDDCDFQTNHTLKQTLSCYSEVWVVPWLQHFEVPVLRCH
On to B1, for which the “other: inhibition of intracellular peptidases” value in data set [1] was “abolishes”. Besides, the oligomerisation result in data set [2] is on record as “no change”. For the same protein, in data set [3], the localisation_or_trafficking result was “decreases”. Also, in data set [4], the “other: proteolytic processing (dimer to monomer conversion)” value is recorded as “abolishes”. For the same protein, the expression_or_secretion entry in data set [5] was “no change”. Besides, the “other: uptake by recipient cells” value in data set [6] is recorded as “decreases”.

B2: cystatin F: N6162S (protein)
parent chain: MRAAGTLLAFCCLVLSTTGGPSPDTCSQDLNSRVKPGFPKTIKTNDPGVLQAARYSVEKFNNCTNDMFLFKESRITRALVQIVKGLKYMLEVEIGRTTCKKNQHLRLDDCDFQTNHTLKQTLSCYSEVWVVPWLQHFEVPVLRCH
Regarding B2, the “other: inhibition of intracellular peptidases” value in data set [1] was “decreases”. The oligomerisation entry in data set [2] is given as “no change”. In addition, the localisation_or_trafficking result in data set [3] is given as “decreases”. In addition, the “other: proteolytic processing (dimer to monomer conversion)” value in data set [4] is on record as “decreases”. For the same protein, the expression_or_secretion result in data set [5] is “no change”. In data set [6], the “other: uptake by recipient cells” value is reported as “decreases”.
